B1: TOR1AIP2 (parent)
chain: DGAGRTWQDSDTVKLLVDLELSYG
B2: C2CD2L (parent)
chain: EPAGSLRELGVWRSLLRLRATRAG

Variants of: B1
Test: protein stability index of a GFP-peptide fusion (GPS, HEK-293T) (PSI 1-6); higher = more stable
Conditions: c terminus: a fixed tail appended
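Further: lentivirally expressed fusions sorted by FACS into six bins by GFP to DsRed ratio, PSI derived from sequencing read proportions per bin multiplied by bin number.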

Row | Variant | protein stability index
1 | K14N | 1.74
2 | K14P | 3.03
3 | K14G | 1.91
4 | K14D | 1.91
5 | K14E | 1.88
6 | K14R | 1.83
7 | K14W | 1.5
8 | K14T | 1.61
9 | K14S | 1.61
10 | K14Q | 1.63
11 | K14H | 1.42
12 | K14A | 1.96
13 | D1T | 3.05
14 | D1H | 2.29
15 | D1Q | 1.53
16 | D1K | 4.34
17 | D1G | 1.68
18 | D1E | 1.69
19 | D1W | 2.93
20 | D1N | 1.32
21 | L16C | 1.99
22 | L16S | 3.36
23 | L16V | 1.42
24 | L16K | 4.25
25 | L16I | 2.57

Row | Variant | protein stability index
26 | L16M | 2.02
27 | L16P | 3.38
28 | L16E | 3.69
29 | L16Y | 1.82
30 | L16T | 3.66
31 | L16W | 2.88
32 | L16N | 3.94
33 | L16R | 2.98
34 | L16D | 3.52
35 | L16G | 3.57
36 | L16Q | 3.31
37 | D11I | 3.92
38 | D11P | 1.66
39 | D11K | 1.53
40 | D11Q | 3.09
41 | D11N | 2.14
42 | D11F | 2.77
43 | D11S | 1.52
44 | D11E | 2.08
45 | D11A | 2.27
46 | D11G | 1.18
47 | D11R | 1.13
48 | V13D | 5.09
49 | V13N | 3.08
50 | V13K | 2.18

Row | Variant | protein stability index
51 | V13T | 2.44
52 | V13I | 1.06
53 | V13P | 3.82
54 | V13F | 1.37
55 | V13M | 2.77
56 | V13R | 2.7
57 | V13L | 2.07
58 | V13C | 2.04
59 | V13E | 3.95
60 | G4Y | 3.85
61 | G4V | 2.22
62 | G4N | 2.05
63 | G4I | 2.38
64 | G4P | 2.12
65 | G4C | 2.02
66 | G4Q | 1.43
67 | G4K | 2.63
68 | G4L | 2.34
69 | G4A | 1.8
70 | G4E | 2.58
71 | G4M | 1.35
72 | G4F | 2.26
73 | G4T | 2.05
74 | G4R | 1.93
75 | G4H | 1.62

Row | Variant | protein stability index
76 | G4S | 2.01
77 | Y23F | 1.03
78 | Y23G | 2.6
79 | Y23I | 1.36
80 | Y23E | 1.85
81 | Y23D | 1.91
82 | Y23A | 1.1
83 | Y23H | 1.77
84 | Q8T | 4.32
85 | Q8S | 3.33
86 | Q8D | 1.24
87 | Q8P | 2.49
88 | Q8N | 2.26
89 | Q8Y | 1.56
90 | Q8M | 2.09
91 | Q8E | 2.26
92 | Q8G | 3.19
93 | Q8K | 1.38
94 | Q8R | 2.88
95 | D9H | 1.09
96 | D9E | 1.5
97 | D9V | 2.09
98 | D9R | 3.52
99 | D9N | 2.92
100 | T12E | 3.43

Row | Variant | protein stability index
101 | T12W | 1.87
102 | T12Y | 1.49
103 | T12Q | 1.6
104 | T12N | 2.79
105 | T12K | 2.6
106 | T12D | 3.56
107 | T12R | 2.59
108 | T12H | 1.35
109 | T12S | 2.28
110 | T12I | 1.54
111 | T12V | 2.03
112 | T12M | 1.58
113 | T12F | 1.4
114 | L19S | 4
115 | L19M | 3
116 | L19N | 3.75
117 | L19I | 2.03
118 | L19T | 4.11
119 | L19A | 3.97
120 | L19V | 2.27
121 | L19F | 2.43
122 | L19G | 4.45
123 | L19D | 4.31
124 | L19E | 4.55
125 | L19K | 4.38

Row | Variant | protein stability index
126 | L19C | 2.8
127 | L19Y | 3.19
128 | S22M | 2.13
129 | S22I | 1.55
130 | S22Q | 2.61
131 | S22G | 2.49
132 | S22P | 3.28
133 | S22A | 3.17
134 | S22R | 1.84
135 | S22L | 1.89
136 | S22C | 1.85
137 | S22F | 1.79
138 | S22H | 1.7
139 | S22W | 1.47
140 | S22Y | 2.35
141 | S22D | 2.51
142 | S22N | 3.21
143 | S22E | 2.33
144 | S22T | 1.56
145 | S22K | 3.51
146 | G2D | 2.53
147 | G2L | 1.74
148 | G2Y | 2.53
149 | G2N | 2.01
150 | G2H | 1.07

Row | Variant | protein stability index
151 | G2T | 4.39
152 | G2A | 2.29
153 | G2E | 1.91
154 | G2C | 3.68
155 | G2R | 2.06
156 | G2V | 1.39
157 | G2K | 3.03
158 | G2Q | 2.69
159 | G2I | 1.28
160 | G2P | 2.31
161 | G2S | 1.84
162 | S10D | 3.02
163 | S10V | 2.92
164 | S10P | 2.36
165 | S10G | 1.01
166 | S10C | 2.18
167 | S10R | 2.08
168 | S10Q | 1.9
169 | S10H | 1.04
170 | S10A | 1.92
171 | S10E | 3.06
172 | S10T | 1.99
173 | S10N | 1.6
174 | E20S | 1.75
175 | E20N | 2.08

Row | Variant | protein stability index
176 | E20H | 1.26
177 | E20Y | 1.59
178 | E20P | 3.09
179 | E20F | 2.34
180 | E20M | 1.68
181 | E20T | 1.48
182 | E20L | 2.12
183 | E20K | 1.93
184 | E20R | 1.61
185 | E20W | 2.81
186 | E20D | 1.56
187 | E20G | 2.13
188 | E20Q | 2.23
189 | L21C | 1.75
190 | L21Y | 1.62
191 | L21W | 1.72
192 | L21F | 1.6
193 | L21E | 1.62
194 | L21Q | 2.35
195 | L21K | 2.02
196 | L21H | 2.84
197 | L21A | 2.01
198 | L21M | 2.65
199 | L21P | 3.99
200 | L21N | 2.07

Row | Variant | protein stability index
201 | L21D | 2
202 | L21T | 1.44
203 | W7I | 2.5
204 | W7C | 2.79
205 | W7F | 2.91
206 | W7H | 2.83
207 | W7P | 2.45
208 | W7V | 2.44
209 | W7E | 4.3
210 | W7A | 3.35
211 | W7L | 2.03
212 | W7G | 3.22
213 | W7M | 2.36
214 | W7N | 4.06
215 | W7R | 3.68
216 | W7D | 4.15
217 | A3I | 1.09
218 | A3E | 1.81
219 | A3N | 1.73
220 | A3P | 1.13
221 | A3Y | 2.5
222 | A3S | 1.4
223 | A3V | 1.41
224 | A3D | 1.53
225 | A3M | 2.51

Row | Variant | protein stability index
226 | A3K | 1.65
227 | A3R | 1.79
228 | A3C | 2.55
229 | A3H | 1.39
230 | L15Q | 4.28
231 | L15W | 2.07
232 | L15I | 1.75
233 | L15A | 3.7
234 | L15H | 3.54
235 | L15V | 2.53
236 | L15F | 2.18
237 | L15G | 3.75
238 | L15R | 3.9
239 | L15P | 3.82
240 | L15E | 4.54
241 | L15N | 4.18
242 | L15Y | 1.84
243 | L15T | 3.67
244 | L15K | 4.4
245 | L15S | 4.04
246 | T6E | 2.62
247 | T6C | 1.92
248 | T6K | 3.73
249 | T6I | 2.17
250 | T6Q | 2.03

Row | Variant | protein stability index
251 | T6D | 2.37
252 | T6W | 1.1
253 | T6A | 1.74
254 | T6S | 2.96
255 | T6Y | 1.58
256 | D18I | 4.08
257 | D18S | 1.52
258 | D18N | 1.8
259 | D18H | 1.08
260 | D18P | 3.1
261 | D18K | 1.98
262 | D18A | 4
263 | D18C | 2.22
264 | D18M | 1.36
265 | V17G | 3.17
266 | V17M | 1.85
267 | V17I | 2.54
268 | V17N | 4.01
269 | V17Y | 2.39
270 | V17S | 3.21
271 | V17W | 1.58
272 | V17F | 1.78
273 | V17R | 3.11
274 | V17E | 4.81
275 | V17C | 1.92

Row | Variant | protein stability index
276 | V17L | 2.34
277 | V17Q | 3.97
278 | V17D | 4.56
279 | R5N | 2.74
280 | R5P | 1.84
281 | R5W | 2.76
282 | R5F | 1.74
283 | R5Q | 2.05
284 | R5V | 3.3
285 | R5T | 1.46
286 | R5I | 1.85
287 | R5L | 2.27
288 | R5D | 2.39
289 | R5H | 3.25
290 | R5G | 1.64
291 | R5K | 2.1
292 | R5C | 1.13
293 | R5A | 1.95
294 | R5E | 2.67
295 | R5Y | 2.33

Variants of: B2
Test: as above
Conditions: c terminus: a fixed tail appended

Row | Variant | protein stability index
296 | A23R | 3.33
297 | A23C | 1.7
298 | A23M | 1.62
299 | A23H | 2.05
300 | A23T | 2.29
301 | A23P | 2.47
302 | A23L | 2.2
303 | A23Y | 2.75
304 | A23Q | 2.23
305 | A23W | 2.28
306 | A23F | 1.07
307 | A23K | 2.94
308 | T21W | 1.31
309 | T21L | 2.12
310 | T21V | 1.7
311 | T21M | 2.3
312 | T21K | 2.97
313 | T21Y | 2.42
314 | R22G | 2.36
315 | R22F | 2.1

Row | Variant | protein stability index
316 | R22P | 2.14
317 | R22S | 2.23
318 | R22K | 2.66
319 | R22E | 2.25
320 | R22D | 2.3
321 | R22Y | 1.34
322 | R22H | 2.01
323 | G24P | 1.96
324 | G24I | 1.97
325 | G24L | 2.87
326 | G24F | 2.11
327 | G24W | 3.29
328 | G24D | 2.66
329 | G24Y | 1.99
330 | G24V | 2.25
331 | G24N | 1.91
332 | G24C | 2.99
333 | G24A | 2.89
334 | G24Q | 2.77

— the supplement of paper PMC10567573
